Our source for the binding result and Kd values is PMC2762092 (The Journal of Cell Biology, 2009).

Holding throughout (experiment): pull-down
The target of assay [1] is T1, 6xHis-tagged SPN-2 (full-length) (C. elegans, UniProt Q20898 1-761).
T1 sequence: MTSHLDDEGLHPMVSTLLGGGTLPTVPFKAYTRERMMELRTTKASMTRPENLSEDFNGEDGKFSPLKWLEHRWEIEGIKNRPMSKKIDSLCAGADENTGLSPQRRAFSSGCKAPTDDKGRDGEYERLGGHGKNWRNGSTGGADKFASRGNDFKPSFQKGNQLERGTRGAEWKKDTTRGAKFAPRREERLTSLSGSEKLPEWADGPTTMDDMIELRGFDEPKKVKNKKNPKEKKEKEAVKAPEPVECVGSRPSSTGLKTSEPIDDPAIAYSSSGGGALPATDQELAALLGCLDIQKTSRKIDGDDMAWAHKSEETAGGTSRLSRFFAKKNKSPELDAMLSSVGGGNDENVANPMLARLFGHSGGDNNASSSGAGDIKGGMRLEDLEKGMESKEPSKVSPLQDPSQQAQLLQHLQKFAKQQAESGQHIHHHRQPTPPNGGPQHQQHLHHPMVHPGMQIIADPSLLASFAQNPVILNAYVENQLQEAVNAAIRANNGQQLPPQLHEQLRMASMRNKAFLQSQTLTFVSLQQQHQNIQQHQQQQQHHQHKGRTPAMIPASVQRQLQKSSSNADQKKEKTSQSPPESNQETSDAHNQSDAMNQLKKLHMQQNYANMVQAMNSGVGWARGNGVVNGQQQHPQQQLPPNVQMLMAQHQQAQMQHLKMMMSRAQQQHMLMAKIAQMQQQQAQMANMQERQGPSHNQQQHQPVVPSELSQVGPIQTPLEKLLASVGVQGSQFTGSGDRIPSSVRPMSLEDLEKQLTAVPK

Assay [2] addresses T2, 6xHis-tagged SPN-2N (SPN-2 N-terminal fragment, 1-399 aa) (C. elegans, UniProt Q20898 1-399).
T2 sequence: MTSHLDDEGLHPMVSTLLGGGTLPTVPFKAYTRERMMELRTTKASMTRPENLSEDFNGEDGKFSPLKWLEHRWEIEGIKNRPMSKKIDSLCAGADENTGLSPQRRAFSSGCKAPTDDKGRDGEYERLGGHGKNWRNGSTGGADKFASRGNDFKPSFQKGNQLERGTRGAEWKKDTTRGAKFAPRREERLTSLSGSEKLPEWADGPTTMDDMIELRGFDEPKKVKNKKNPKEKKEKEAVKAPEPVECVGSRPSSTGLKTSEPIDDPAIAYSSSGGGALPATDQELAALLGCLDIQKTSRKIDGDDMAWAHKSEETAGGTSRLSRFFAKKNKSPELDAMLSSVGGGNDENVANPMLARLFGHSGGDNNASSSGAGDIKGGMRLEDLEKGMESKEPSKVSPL

For assay [3], the target named is T1, 6xHis-tagged SPN-2 (full-length). The source holds these as a separate data set.

B1: GST–IFE-5 (natural protein)
chain: MTELTTPIYPLQRNWSWWFLNDDRNASWQDRLKKVYTFNTVPEFWAFYEAILPPSGLNDLCDYNVFRDDIQPKWEAPENWDGGRWLIIINKGKTPEVLDAVWLEILLALIGEQFGKDMESICGLVCNVRGQGSKISVWTKNCNDDDTNMRIGVVLKEKLMAAASKAHSKPLFDVIHYQTHRNCVKKTTSALKYKFSLKSIV
Consider B1, for which the binding result in assay [1] and in assay [2] was “binds” throughout.

B2: GST–IFE-1 (natural protein)
chain: MTETEQTTAPIYPLKRNWTWWYLNDERNKSWEDRLKKVYTFNTVSEFWALYDAIRPPSGLNALCDYNVFRDDIQPMWEVPENSNGGRWLIVIDKGKTPEMVDAIWLEILMALVGEQFGKDMESICGLVCNVRGKGSKISVWTKDCNDDETNMRIGVVLKEKLMAASKDHSKPLFDVIRYEDHESCQKKTSSVVKAKLSLHSSDAPVAEKSAV
B2 showed a Kd in assay [3] of 33 nM.

B3: GST–IFE-2 (natural protein)
chain: MSEEPVAAPGTISHPVYKLKRNWTWWYLNDERNKSWEERLKNVKTFSSVGEFWALHDSIKPPSGLNPPSDYNVFRDGIEPMWEVPQNQNGGRWLITIEKGRTPEIMDTIWTEILMAMIGEQFSDDIESLCGIVCNVRGKGSKISVWTTNSADDGANLRIGGVLKQVLNNASMIHQRPLYDVLRYEDHESCQKKTSSGVKAKHAIYAVEPREEKAPVPVSTETPATPAT
Turning to B3, the binding result in assay [1] and in assay [2] was “binds” throughout.
